Assay results: patent publication US20200207819A1 (SPIBER TECHNOLOGIES, published 2020)
Where a chain is given by its changes, count along the chain named. Names and notes keep the numbering of the source.

T1: NTwt (wildtype N-terminal (NT) fragment of Euprosthenops australis major ampullate spidroin 1) (Euprosthenops australis)
T1 chain: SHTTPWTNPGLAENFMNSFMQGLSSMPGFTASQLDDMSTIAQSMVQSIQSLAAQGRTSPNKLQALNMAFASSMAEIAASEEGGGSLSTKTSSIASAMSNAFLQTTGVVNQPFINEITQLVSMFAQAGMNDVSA

B1: NTwt (wildtype N-terminal (NT) fragment of Euprosthenops australis major ampullate spidroin 1) (protein)
chain: T1 chain
B2: NTD40K/K65D (charge-reversed double mutant of the NT fragment) (other)
chain: T1 chain with D36K, K61D
notes: Expressed in E. coli BL21 (DE3); also called charge-reversed NT mutant; NT mutant

Key:
[1] = target: T1, NTwt (wildtype N-terminal (NT) fragment …); assay: tryptophan fluorescence ratio 339/351 nm vs pH, 5 µM protein in 20 mM HEPES/20 mM MES; homodimerization; conditions: remark: other sources report otherwise
[2] = target: the molecule itself; assay: tryptophan fluorescence ratio 339/351 nm vs pH (self-association / dimerization)
Protocol: Fluorescence emission spectra for NT_{D40K/K65D} (SEQ ID NO: 2) and NTwt (SEQ ID NO: 11), respectively, were measured on a spectrofluorometer (Tecan Safire 2) using Costar® black polystyrene assay plates with 96 flat bottom wells. The proteins were diluted to a concentration of 5 μM in 20 mM HEPES/20 mM MES adjusted to pH 5.6-8.0 in steps of 0.4 pH units. After exciting the samples at 280 nm (5 nm bandwidth), emission spectra were recorded in 1 nm steps between 300-400 nm (10 nm bandwidth). The tryptophan fluorescence ratio was calculated from the intensities at 339 nm and 351 nm and plotted as a function of pH. […]
The pH-dependent monomer-dimer equilibrium of NT can be monitored through the fluorescence shift of a single tryptophan (Trp) residue that becomes more exposed in the dimer. FIG. 2 is a graph illustrating the monomer-dimer equilibrium measured with Trp fluorescence. Trp fluorescence spectra between 300 and 400 nm were measured in 20 mM HEPES/20 mM MES buffer and the ratio at 339/351 nm (wavelengths corresponding to monomer and dimer conformations, respectively) was calculated and plotted as a function of pH for NTwt (dotted line) and NT_{D40K/K65D} (filled line). The ratio of fluorescence at 339 and 351 nm as a function of pH gives a sigmoidal plot for NTwt with a pKa of dimerization at pH 6.5. […]

| Binder | pKa of dimerization [1] | binding result [2] |
| --- | --- | --- |
| B1 | 6.5 pH |  |
| B2 |  | no binding (tested: 5 µM protein, pH 5.6-8.0) |
